Laboratory results taken from publication PMC11183095, “PKM2 functions as a histidine kinase to phosphorylate PGAM1 and increase glycolysis shunts in cancer” (The EMBO Journal, 2024).

Target: T1, Recombinant GST-PKM2 (human, UniProt P14618 1-531)
T1 construct: pyruvate kinase M2 (PKM2), human cDNA in pGEX-6P-1; source: E. coli BL21 (DE3), purified (glutathione resin, dialysed in PBS)
Assay: pull-down; recombinant His-PGAM1 immobilised on Ni-beads, mixed with recombinant GST-PKM2 or GST-ENO1; eluate analysed by western blot
Settings: both partners purified

T1 sequence (P14618 whole entry): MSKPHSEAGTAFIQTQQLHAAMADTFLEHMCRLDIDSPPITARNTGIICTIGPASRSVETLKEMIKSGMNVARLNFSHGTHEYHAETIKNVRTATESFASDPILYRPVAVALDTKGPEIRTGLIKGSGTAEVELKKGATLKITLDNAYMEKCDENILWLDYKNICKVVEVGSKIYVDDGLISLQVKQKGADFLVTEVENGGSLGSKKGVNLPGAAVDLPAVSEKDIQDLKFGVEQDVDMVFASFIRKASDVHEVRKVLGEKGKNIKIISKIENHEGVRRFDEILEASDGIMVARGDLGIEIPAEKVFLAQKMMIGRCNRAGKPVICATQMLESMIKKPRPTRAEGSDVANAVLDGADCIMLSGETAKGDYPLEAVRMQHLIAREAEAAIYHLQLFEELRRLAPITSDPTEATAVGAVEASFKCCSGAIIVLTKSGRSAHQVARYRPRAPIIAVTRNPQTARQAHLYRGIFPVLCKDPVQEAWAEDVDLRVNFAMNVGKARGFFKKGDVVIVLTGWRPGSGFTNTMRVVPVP

B1: Recombinant His-PGAM1 (enzyme, human)
chain: MAAYKLVLIRHGESAWNLENRFSGWYDADLSPAGHEEAKRGGQALRDAGYEFDICFTSVQKRAIRTLWTVLDAIDQMWLPVVRTWRLNERHYGGLTGLNKAETAAKHGEAQVKIWRRSYDVPPPPMEPDHPFYSNISKDRRYADLTEDQLPSCESLKDTIARALPFWNEEIVPQIKEGKRVLIAAHGNSLRGIVKHLEGLSEEAIMELNLPTGIPIVYELDKNLKPIKPMQFLGDEETVRKAMEAVAAQGKAKK
notes: phosphoglycerate mutase 1 (PGAM1), human cDNA in pET-28a; also called His-tagged PGAM1; source: E. coli BL21 (DE3), purified (Ni resin, dialysed in PBS)
- binding result: binds
